In patent publication US20170340748A1:
Like-named read-outs stand apart in the source and are kept apart here.

Experiments:
[1] = molecular target: T47D cells (human) (UniProt P15328); experiment: flow cytometry binding on T47D cells
[2] = molecular target: T47D cells (human) (UniProt P15328); experiment: flow cytometry binding on T47D cells; remark: listed apart in the source

Chain of T47D cells (human) (P15328 25-234, stated change not applied): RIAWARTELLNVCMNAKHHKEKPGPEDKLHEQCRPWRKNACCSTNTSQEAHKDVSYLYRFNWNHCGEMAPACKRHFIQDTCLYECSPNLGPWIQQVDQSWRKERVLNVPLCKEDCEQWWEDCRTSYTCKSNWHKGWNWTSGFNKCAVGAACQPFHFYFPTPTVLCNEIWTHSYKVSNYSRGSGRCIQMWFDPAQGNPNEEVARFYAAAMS

EC50 [1]: 0.314 nM
EC50 [2]: 0.144 nM
Substance: huMOV19
